Tests used:
[1] = molecular target: tyrosine-protein kinase Met (c-Met) on human tumor cells (human) (UniProt P08581); assay: cell-based or functional assay
[2] = molecular target: CEA-CAM6-BsAb bispecific control antibody (TA1-Fab anti-CD3 x CEA-CAM6 VHH); assay: BLI self-interaction, AHQ sensor
[3] = molecular target: EGFR-BsAb bispecific control antibody (TA1-Fab anti-CD3 x EGFR VHH); assay: BLI self-interaction, AHQ sensor
[4] = molecular target: CEA-BsAb bispecific control antibody (TA1-Fab anti-CD3 x CEA VHH); assay: BLI self-interaction, AHQ sensor
[5] = molecular target: HER2-BsAb bispecific control antibody (TA1-Fab anti-CD3 x HER2 VHH); assay: BLI self-interaction, AHQ sensor

Sequence of tyrosine-protein kinase Met (c-Met) on human tumor cells (human) (P08581 25-1390): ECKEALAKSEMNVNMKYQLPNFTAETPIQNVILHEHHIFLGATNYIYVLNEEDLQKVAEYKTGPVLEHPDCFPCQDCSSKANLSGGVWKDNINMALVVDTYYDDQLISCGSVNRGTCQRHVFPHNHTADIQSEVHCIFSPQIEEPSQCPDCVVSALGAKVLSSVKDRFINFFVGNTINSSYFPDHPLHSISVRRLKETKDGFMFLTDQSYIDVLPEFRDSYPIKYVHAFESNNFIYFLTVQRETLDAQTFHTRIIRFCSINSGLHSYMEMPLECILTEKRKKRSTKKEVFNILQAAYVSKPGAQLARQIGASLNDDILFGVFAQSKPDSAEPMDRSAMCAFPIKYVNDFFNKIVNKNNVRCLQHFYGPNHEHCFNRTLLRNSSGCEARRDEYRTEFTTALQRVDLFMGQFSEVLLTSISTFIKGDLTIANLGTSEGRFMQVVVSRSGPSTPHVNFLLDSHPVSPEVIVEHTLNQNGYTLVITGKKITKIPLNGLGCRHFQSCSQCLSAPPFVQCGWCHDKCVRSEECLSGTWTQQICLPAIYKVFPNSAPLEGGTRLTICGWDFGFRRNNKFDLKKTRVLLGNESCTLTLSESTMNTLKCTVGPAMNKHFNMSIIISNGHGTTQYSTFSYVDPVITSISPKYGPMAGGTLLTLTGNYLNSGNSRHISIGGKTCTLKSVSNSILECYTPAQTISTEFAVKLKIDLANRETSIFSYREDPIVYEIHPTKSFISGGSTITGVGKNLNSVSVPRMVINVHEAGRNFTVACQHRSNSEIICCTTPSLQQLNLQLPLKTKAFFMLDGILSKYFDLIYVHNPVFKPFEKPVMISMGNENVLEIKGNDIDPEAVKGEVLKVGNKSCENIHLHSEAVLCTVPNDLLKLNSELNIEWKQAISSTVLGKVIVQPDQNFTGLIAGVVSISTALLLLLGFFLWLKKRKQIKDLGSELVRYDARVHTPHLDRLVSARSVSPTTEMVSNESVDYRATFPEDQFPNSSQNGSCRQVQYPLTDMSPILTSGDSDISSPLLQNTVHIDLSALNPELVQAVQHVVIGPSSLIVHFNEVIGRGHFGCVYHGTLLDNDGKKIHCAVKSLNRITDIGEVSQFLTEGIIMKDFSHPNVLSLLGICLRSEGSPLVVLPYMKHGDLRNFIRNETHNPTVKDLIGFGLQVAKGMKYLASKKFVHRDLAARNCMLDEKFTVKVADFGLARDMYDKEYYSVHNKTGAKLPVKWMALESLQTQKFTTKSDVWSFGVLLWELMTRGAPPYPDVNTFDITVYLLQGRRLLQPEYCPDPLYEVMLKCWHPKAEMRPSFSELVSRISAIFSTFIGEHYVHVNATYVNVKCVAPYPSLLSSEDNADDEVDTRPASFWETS

B1: c-Met-BsAb bispecific control antibody (anti-CD3 TA1 Fab and c-Met VHH) (bispecific antibody, not shown: a dimerising Fc or GST)
heavy: EVKLLESGGGLVQPKGSLKLSCAASGFTFNTYAMNWVRQAPGKGLEWVARIRSKYNNYATYYADSVKDRFTISRDDSQSILYLQMNNLKTEDTAMYYCVRHGNFGNSYVSWFAYWGQGTLVTVSSASTKGPSVFPLAPCSRSTSESTAALGCLVKDYFPEPVTVSWNSGALTSGVHTFPAVLQSSGLYSLSSVVTVPSSSLGTKTYTCNVDHKPSNTKVDKRV
chain: QVKLEESGGDLVQPGGSLRLSCVGSGSIFSYTAMGWYRQAPGKQRELVATIHSGGNINYADSVKGRFTISRDNTENTVYLQMNSLKPEDTAVYYCWSLLVGPETRYKDFNFWGRGTQVTVSS
light: QAVVTQESALTTSPGETVTLTCRSSTGAVTTSNYANWVQEKPDHLFTGLIGGTNKRAPGVPARFSGSLIGDKAALTITGAQTEDEAIYFCALWYSNLWVFGGGTKVEIKRTVAAPSVFIFPPSDEQLKSGTASVVCLLNNFYPREAKVQWKVDNALQSGNSQESVTEQDSKDSTYSLSSTLTLSKADYEKHKVYACEVTHQGLSSPVTKSFNRGEC
[1]
  T cell mediated killing EC50, H-1975 (EGFR+c-Met+): 0.223 pM
  T cell mediated killing EC50, HT-29 (EGFR+c-Met+): 0.518 pM
  T cell mediated killing EC50, OSRC2 (EGFR+++c-Met+): 243 pM
  T cell mediated killing EC50, UT33A (EGFR+++c-Met+++): 2.7 pM
  T cell mediated killing EC50, UT44 (EGFR+++c-Met++): 0.156 pM

B2: CEA-CAM6-BsAb bispecific control antibody (TA1-Fab anti-CD3 x CEA-CAM6 VHH) (bispecific antibody, human IgG4 S228P, kappa, F234A L235A)
heavy: EVKLLESGGGLVQPKGSLKLSCAASGFTFNTYAMNWVRQAPGKGLEWVARIRSKYNNYATYYADSVKDRFTISRDDSQSILYLQMNNLKTEDTAMYYCVRHGNFGNSYVSWFAYWGQGTLVTVSSASTKGPSVFPLAPCSRSTSESTAALGCLVKDYFPEPVTVSWNSGALTSGVHTFPAVLQSSGLYSLSSVVTVPSSSLGTKTYTCNVDHKPSNTKVDKRVESKYGPPCPPCPAPEAAGGPSVFLFPPKPKDTLMISRTPEVTCVVVDVSQEDPEVQFNWYVDGVEVHNAKTKPREEQFNSTYRVVSVLTVLHQDWLNGKEYKCKVSNKGLPSSIEKTISKAKGQPREPQVYTLPPCQEEMTKNQVSLWCLVKGFYPSDIAVEWESNGQPENNYKTTPPVLDSDGSFFLYSRLTVDKSRWQEGNVFSCSVMHEALHNHYTQKSLSLSL
chain: QVKLEESGGGLVQAGGSLRLSCRTSGRTNSVYTMGWFRQAPGKEREFVAQIMWGAGTNTHYADSVKGRFTISRDSAESTVYLQMNSLKPEDTAVYYCAANRGIPIAGRQYDYWGQGTQVTVSSESKYGPPCPPCPAPEAAGGPSVFLFPPKPKDTLMISRTPEVTCVVVDVSQEDPEVQFNWYVDGVEVHNAKTKPREEQFNSTYRVVSVLTVLHQDWLNGKEYKCKVSNKGLPSSIEKTISKAKGQPREPQVCTLPPSQEEMTKNQVSLSCAVKGFYPSDIAVEWESNGQPENNYKTTPPVLDSDGSFFLVSRLTVDKSRWQEGNVFSCSVMHEALHNRFTQKSLSLSL
light: QAVVTQESALTTSPGETVTLTCRSSTGAVTTSNYANWVQEKPDHLFTGLIGGTNKRAPGVPARFSGSLIGDKAALTITGAQTEDEAIYFCALWYSNLWVFGGGTKVEIKRTVAAPSVFIFPPSDEQLKSGTASVVCLLNNFYPREAKVQWKVDNALQSGNSQESVTEQDSKDSTYSLSSTLTLSKADYEKHKVYACEVTHQGLSSPVTKSFNRGEC
[2]
  BLI-Response (self-interaction): 0.045 nm

B3: EGFR-BsAb bispecific control antibody (TA1-Fab anti-CD3 x EGFR VHH) (bispecific antibody, human IgG4 S228P, kappa, F234A L235A)
heavy: EVKLLESGGGLVQPKGSLKLSCAASGFTFNTYAMNWVRQAPGKGLEWVARIRSKYNNYATYYADSVKDRFTISRDDSQSILYLQMNNLKTEDTAMYYCVRHGNFGNSYVSWFAYWGQGTLVTVSSASTKGPSVFPLAPCSRSTSESTAALGCLVKDYFPEPVTVSWNSGALTSGVHTFPAVLQSSGLYSLSSVVTVPSSSLGTKTYTCNVDHKPSNTKVDKRVESKYGPPCPPCPAPEAAGGPSVFLFPPKPKDTLMISRTPEVTCVVVDVSQEDPEVQFNWYVDGVEVHNAKTKPREEQFNSTYRVVSVLTVLHQDWLNGKEYKCKVSNKGLPSSIEKTISKAKGQPREPQVYTLPPCQEEMTKNQVSLWCLVKGFYPSDIAVEWESNGQPENNYKTTPPVLDSDGSFFLYSRLTVDKSRWQEGNVFSCSVMHEALHNHYTQKSLSLSL
chain: QVQLQESGGGSVQAGGSLKLSCAASGRGFSRYAMGWFRQAPGQDREFVATISWTNSTDYADSVKGRFAISRDNAKNTAYLQMNSLKPEDTAVYYCAADKWASSTRSIDYDYWGQGIQVTVSSESKYGPPCPPCPAPEAAGGPSVFLFPPKPKDTLMISRTPEVTCVVVDVSQEDPEVQFNWYVDGVEVHNAKTKPREEQFNSTYRVVSVLTVLHQDWLNGKEYKCKVSNKGLPSSIEKTISKAKGQPREPQVCTLPPSQEEMTKNQVSLSCAVKGFYPSDIAVEWESNGQPENNYKTTPPVLDSDGSFFLVSRLTVDKSRWQEGNVFSCSVMHEALHNRFTQKSLSLSL
light: QAVVTQESALTTSPGETVTLTCRSSTGAVTTSNYANWVQEKPDHLFTGLIGGTNKRAPGVPARFSGSLIGDKAALTITGAQTEDEAIYFCALWYSNLWVFGGGTKVEIKRTVAAPSVFIFPPSDEQLKSGTASVVCLLNNFYPREAKVQWKVDNALQSGNSQESVTEQDSKDSTYSLSSTLTLSKADYEKHKVYACEVTHQGLSSPVTKSFNRGEC
[3]
  BLI-Response (self-interaction): 0.037 nm

B4: CEA-BsAb bispecific control antibody (TA1-Fab anti-CD3 x CEA VHH) (bispecific antibody, human IgG4 S228P, kappa, F234A L235A)
heavy: EVKLLESGGGLVQPKGSLKLSCAASGFTFNTYAMNWVRQAPGKGLEWVARIRSKYNNYATYYADSVKDRFTISRDDSQSILYLQMNNLKTEDTAMYYCVRHGNFGNSYVSWFAYWGQGTLVTVSSASTKGPSVFPLAPCSRSTSESTAALGCLVKDYFPEPVTVSWNSGALTSGVHTFPAVLQSSGLYSLSSVVTVPSSSLGTKTYTCNVDHKPSNTKVDKRVESKYGPPCPPCPAPEAAGGPSVFLFPPKPKDTLMISRTPEVTCVVVDVSQEDPEVQFNWYVDGVEVHNAKTKPREEQFNSTYRVVSVLTVLHQDWLNGKEYKCKVSNKGLPSSIEKTISKAKGQPREPQVYTLPPCQEEMTKNQVSLWCLVKGFYPSDIAVEWESNGQPENNYKTTPPVLDSDGSFFLYSRLTVDKSRWQEGNVFSCSVMHEALHNHYTQKSLSLSL
chain: EVQLVESGGGFVQAGESLTLSCTSSTLTFTPYRMAWYRQAPGKQRDLVADISSGDGRTTNYADFAKGRFTISRDNIKNTVFLRMTNLKPEDTAVYYCNTFVSFVGIARSWGQGTQVTVSSESKYGPPCPPCPAPEAAGGPSVFLFPPKPKDTLMISRTPEVTCVVVDVSQEDPEVQFNWYVDGVEVHNAKTKPREEQFNSTYRVVSVLTVLHQDWLNGKEYKCKVSNKGLPSSIEKTISKAKGQPREPQVCTLPPSQEEMTKNQVSLSCAVKGFYPSDIAVEWESNGQPENNYKTTPPVLDSDGSFFLVSRLTVDKSRWQEGNVFSCSVMHEALHNRFTQKSLSLSL
light: QAVVTQESALTTSPGETVTLTCRSSTGAVTTSNYANWVQEKPDHLFTGLIGGTNKRAPGVPARFSGSLIGDKAALTITGAQTEDEAIYFCALWYSNLWVFGGGTKVEIKRTVAAPSVFIFPPSDEQLKSGTASVVCLLNNFYPREAKVQWKVDNALQSGNSQESVTEQDSKDSTYSLSSTLTLSKADYEKHKVYACEVTHQGLSSPVTKSFNRGEC
[4]
  BLI-Response (self-interaction): 0.103 nm

B5: HER2-BsAb bispecific control antibody (TA1-Fab anti-CD3 x HER2 VHH) (bispecific antibody, human IgG4 S228P, kappa, F234A L235A)
heavy: EVKLLESGGGLVQPKGSLKLSCAASGFTFNTYAMNWVRQAPGKGLEWVARIRSKYNNYATYYADSVKDRFTISRDDSQSILYLQMNNLKTEDTAMYYCVRHGNFGNSYVSWFAYWGQGTLVTVSSASTKGPSVFPLAPCSRSTSESTAALGCLVKDYFPEPVTVSWNSGALTSGVHTFPAVLQSSGLYSLSSVVTVPSSSLGTKTYTCNVDHKPSNTKVDKRVESKYGPPCPPCPAPEAAGGPSVFLFPPKPKDTLMISRTPEVTCVVVDVSQEDPEVQFNWYVDGVEVHNAKTKPREEQFNSTYRVVSVLTVLHQDWLNGKEYKCKVSNKGLPSSIEKTISKAKGQPREPQVYTLPPCQEEMTKNQVSLWCLVKGFYPSDIAVEWESNGQPENNYKTTPPVLDSDGSFFLYSRLTVDKSRWQEGNVFSCSVMHEALHNHYTQKSLSLSL
chain: QVQLVQSGGGLVQAGGSLRLSCAASGRTFSSYAMAWFRQAPGKEREFVAAISWSGANIYVADSVKGRFTISRDNAKDTVYLQMNSLKPEDTAVYYCAVKLGFAPVEERQYDYWGQGTQVTVSSESKYGPPCPPCPAPEAAGGPSVFLFPPKPKDTLMISRTPEVTCVVVDVSQEDPEVQFNWYVDGVEVHNAKTKPREEQFNSTYRVVSVLTVLHQDWLNGKEYKCKVSNKGLPSSIEKTISKAKGQPREPQVCTLPPSQEEMTKNQVSLSCAVKGFYPSDIAVEWESNGQPENNYKTTPPVLDSDGSFFLVSRLTVDKSRWQEGNVFSCSVMHEALHNRFTQKSLSLSL
light: QAVVTQESALTTSPGETVTLTCRSSTGAVTTSNYANWVQEKPDHLFTGLIGGTNKRAPGVPARFSGSLIGDKAALTITGAQTEDEAIYFCALWYSNLWVFGGGTKVEIKRTVAAPSVFIFPPSDEQLKSGTASVVCLLNNFYPREAKVQWKVDNALQSGNSQESVTEQDSKDSTYSLSSTLTLSKADYEKHKVYACEVTHQGLSSPVTKSFNRGEC
[5]
  BLI-Response (self-interaction): 0.066 nm
